Measured values: PMC7496117, “A zinc finger protein BBX19 interacts with ABF3 to affect drought tolerance negatively in chrysanthemum”

Molecular target: T1, GST-CmABF3 (Chrysanthemum morifolium, UniProt A0A7T8G3B9 1-415)
T1 sequence: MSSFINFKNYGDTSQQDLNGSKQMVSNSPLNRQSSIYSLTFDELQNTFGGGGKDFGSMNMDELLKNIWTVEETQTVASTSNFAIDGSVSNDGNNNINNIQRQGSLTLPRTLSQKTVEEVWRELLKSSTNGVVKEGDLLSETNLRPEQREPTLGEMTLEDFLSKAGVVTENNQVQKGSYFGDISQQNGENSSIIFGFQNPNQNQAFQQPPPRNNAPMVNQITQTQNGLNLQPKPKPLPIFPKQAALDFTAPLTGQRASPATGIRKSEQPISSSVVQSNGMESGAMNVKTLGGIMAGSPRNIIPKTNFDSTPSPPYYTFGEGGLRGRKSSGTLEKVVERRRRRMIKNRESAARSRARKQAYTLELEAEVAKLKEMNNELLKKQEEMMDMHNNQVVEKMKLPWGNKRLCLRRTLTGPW
Assay: EMSA; 3 ug protein; cold-probe competition 100-5000x, outcome only in gel; LightShift Chemiluminescent EMSA kit, 20 ul reaction, 3 ug protein; biotin probe 50 nM or 2 nM (Methods); buffer, salt, pH and temperature not stated
Settings: protein: recombinant; tags: GST (N-terminal, pGEX); chain copies: 2; blunt

B1: proRAB18-probe (CmRAB18 promoter, two ABRE motifs) (dsDNA)
DNA 1: GAAATTAGACACGTACTTTTCAGTGATAACATAAACATACTTACGTGTTC
DNA 2: GAACACGTAAGTATGTTTATGTTATCACTGAAAAGTACGTGTCTAATTTC
- binding result: binds
